Reference: patent publication US20180346602A1
Residue numbers refer to the chain shown, from its start.

B1: anti-variant (human) Fc-region antibody M1.3.17 (antibody, V domains shown)
VH: EVKLLESGGGLVQPGGSLKLSCAASGIDFRRYWMNWVRQAPGKGLEWIGEIDPDSSTINYTPSLKDKFIISRDNAKNTMYLQMRKVRSEDTALYYCARPYDYGAWFAYWGQGTLVTVSA
VL: QAVVTQESALTTSPGETVTLTCRSTTGAVTTSNYANWVQEKPDHLFTGLIGGTNKRAPGVPARFSGSLIGDKAALTITGAQTEDEAIYFCALWYSDHWVFGGGTKLTVL
B2: anti-variant (human) Fc-region antibody M1.7.24 (antibody, V domains shown)
VH: B1 VH with I27F, R30S, D52T, M79L, R84I, A97V, Y108S
VL: B1 VL with T25S, D96N
B3: anti-AAA variant Fc-region antibody M1.6.22 (antibody, V domains shown)
VH: EVQLVESGGDLVKPGGSLKLSCAASGFTFSSYGMSWVRQTPDKRLEWVATISSGGSYIYYPDSVKGRFTISRDNAKNTLYLQMSSLKSEDTAMYYCARLGMITTGYAMDYWGQGTSVTVSS
VL: DVLMTQTPLSLPVSLGDQASISCRSSQTIVHSTGHTYLEWFLQKPGQSPKLLIYKVSNRFSGVPDRFSGSGSGTDFTLKISRVEAEDLGVYYCFQGSHVPYTFGGGTKLEIK

Assays:
[1] = target: anti-IGF-1R antibody (IgG1 subclass with mutations I253A/H310A/H435A) [IgG part: P01857]; experiment: sandwich ELISA assay A; capture M1.7.10-Bi; antibody 3 at 3 ng/mL
[2] = target: anti-IGF-1R antibody (IgG1 subclass with mutations I253A/H310A/H435A) (human) [IgG part: P01857]; experiment: sandwich ELISA assay B; capture on SA plate; tracer M1.7.10-Dig; analyte 13 ng/mL
[3] = target: anti-VEGF/ANG2 antibody (IgG1 subclass with mutations P329G/L234A/L235A/I253A/H310A/H435A) (human) [IgG part: P01857]; experiment: as above
[4] = target: anti-P-Selectin antibody (IgG4 subclass with mutations S228P/L235E) (human) [IgG part: P01861]; experiment: as above
[5] = target: anti-VEGF/ANG2 antibody (IgG1 subclass with mutations P329G/L234A/L235A) (human) [IgG part: P01857]; experiment: as above
[6] = target: anti-P-Selectin antibody (IgG4 subclass with mutations S228P/L235E) [IgG part: P01861]; experiment: sandwich ELISA assay A; capture M1.7.10-Bi; antibody 4 at 2 ng/mL
[7] = target: anti-P-Selectin antibody (IgG4 subclass with mutations S228P/L235E) (human) [IgG part: P01861]; experiment: sandwich ELISA assay C; capture on SA plate; tracer FcγRI-Dig; analyte 2 ng/mL
[8] = target: anti-P-Selectin antibody (IgG4 subclass with mutations S228P/L235E) (human) [IgG part: P01861]; experiment: sandwich ELISA assay B; capture on SA plate; tracer M1.7.10-Dig; analyte 2 ng/mL
[9] = target: anti-IGF-1R antibody (IgG1 subclass with mutations I253A/H310A/H435A) [IgG part: P01857]; experiment: sandwich ELISA assay A; capture M1.7.10-Bi; antibody 3 at 0 ng/mL (blank)
[10] = target: anti-IGF-1R antibody (IgG1 subclass with mutations I253A/H310A/H435A) (human) [IgG part: P01857]; experiment: sandwich ELISA assay B; capture on SA plate; tracer M1.7.10-Dig; analyte 3 ng/mL
[11] = target: anti-VEGF/ANG2 antibody (IgG1 subclass with mutations P329G/L234A/L235A/I253A/H310A/H435A) (human) [IgG part: P01857]; experiment: as above
[12] = target: anti-P-Selectin antibody (IgG4 subclass with mutations S228P/L235E) (human) [IgG part: P01861]; experiment: as above
[13] = target: anti-VEGF/ANG2 antibody (IgG1 subclass with mutations P329G/L234A/L235A) (human) [IgG part: P01857]; experiment: as above
[14] = target: anti-P-Selectin antibody (IgG4 subclass with mutations S228P/L235E) [IgG part: P01861]; experiment: sandwich ELISA assay A; capture M1.7.10-Bi; antibody 4 at 100 ng/mL
[15] = target: anti-IGF-1R antibody (IgG1 subclass with mutations I253A/H310A/H435A) (human) [IgG part: P01857]; experiment: sandwich ELISA assay B; capture on SA plate; tracer M1.7.10-Dig; analyte 6 ng/mL
[16] = target: anti-VEGF/ANG2 antibody (IgG1 subclass with mutations P329G/L234A/L235A/I253A/H310A/H435A) (human) [IgG part: P01857]; experiment: as above
[17] = target: anti-P-Selectin antibody (IgG4 subclass with mutations S228P/L235E) (human) [IgG part: P01861]; experiment: as above
[18] = target: anti-VEGF/ANG2 antibody (IgG1 subclass with mutations P329G/L234A/L235A) (human) [IgG part: P01857]; experiment: as above
[19] = target: anti-IGF-1R antibody (IgG1 subclass with mutations I253A/H310A/H435A) (human) [IgG part: P01857]; experiment: sandwich ELISA assay C; capture on SA plate; tracer FcγRI-Dig; analyte 13 ng/mL
[20] = target: anti-VEGF/ANG2 antibody (IgG1 subclass with mutations P329G/L234A/L235A/I253A/H310A/H435A) (human) [IgG part: P01857]; experiment: as above
[21] = target: anti-P-Selectin antibody (IgG4 subclass with mutations S228P/L235E) (human) [IgG part: P01861]; experiment: as above
[22] = target: anti-VEGF/ANG2 antibody (IgG1 subclass with mutations P329G/L234A/L235A) (human) [IgG part: P01857]; experiment: as above
[23] = target: anti-VEGF/ANG2 antibody (wild-type IgG1 subclass) [IgG part: P01857]; experiment: sandwich ELISA assay A; capture M1.7.10-Bi; antibody 5 at 6 ng/mL
[24] = target: anti-VEGF/ANG2 antibody (IgG1 subclass with mutations P329G/L234A/L235A/I253A/H310A/H435A) [IgG part: P01857]; experiment: sandwich ELISA assay A; capture M1.7.10-Bi; antibody 1 at 0 ng/mL (blank)
[25] = target: anti-VEGF/ANG2 antibody (IgG1 subclass with mutations P329G/L234A/L235A/I253A/H310A/H435A) [IgG part: P01857]; experiment: sandwich ELISA assay A; capture M1.7.10-Bi; antibody 1 at 3 ng/mL

signal [OD405 nm] [1] [OD405 nm] | signal [OD405 nm] [2] [OD405 nm] | signal [OD405 nm] [3] [OD405 nm] | signal [OD405 nm] [4] [OD405 nm] | signal [OD405 nm] [5] [OD405 nm] | signal [OD405 nm] [6] [OD405 nm] | signal [OD405 nm] [7] [OD405 nm] | signal [OD405 nm] [8] [OD405 nm] | signal [OD405 nm] [9] [OD405 nm] | signal [OD405 nm] [10] [OD405 nm] | signal [OD405 nm] [11] [OD405 nm] | signal [OD405 nm] [12] [OD405 nm] | signal [OD405 nm] [13] [OD405 nm] | signal [OD405 nm] [14] [OD405 nm] | signal [OD405 nm] [15] [OD405 nm] | signal [OD405 nm] [16] [OD405 nm] | signal [OD405 nm] [17] [OD405 nm] | signal [OD405 nm] [18] [OD405 nm] | signal [OD405 nm] [19] [OD405 nm] | signal [OD405 nm] [20] [OD405 nm] | further results | Binder
0.036 | 0.044 | 0.034 | 0.047 | 0.217 | 0.034 | 1.19 | 0.049 | 0.04 | 0.047 | 0.036 | 0.05 | 0.165 | 0.04 | 0.045 | 0.035 | 0.048 | 0.196 | 1.21 | 1.14 | signal [OD405 nm] [21]: 1.16 OD405 nm; signal [OD405 nm] [22]: 1.23 OD405 nm; signal [OD405 nm] [23]: 0.036 OD405 nm; signal [OD405 nm] [24]: 0.044 OD405 nm; signal [OD405 nm] [25]: 0.038 OD405 nm | B1
0.045 | 0.043 | 0.053 | 0.037 | 3.15 | 0.036 | 0.056 | 0.033 | 0.049 | 0.046 | 0.04 | 0.031 | 2.51 | 0.046 | 0.039 | 0.053 | 0.037 | 2.98 | 0.058 | 0.085 | signal [OD405 nm] [21]: 0.066 OD405 nm; signal [OD405 nm] [22]: 0.06 OD405 nm; signal [OD405 nm] [23]: 0.042 OD405 nm; signal [OD405 nm] [24]: 0.05 OD405 nm; signal [OD405 nm] [25]: 0.046 OD405 nm | B2
0.414 | 2.85 | 0.041 | 0.042 | 0.066 | 0.04 | 0.067 | 0.032 | 0.046 | 2.26 | 0.039 | 0.039 | 0.044 | 0.057 | 2.73 | 0.039 | 0.04 | 0.053 | 0.175 | 0.064 | signal [OD405 nm] [21]: 0.052 OD405 nm; signal [OD405 nm] [22]: 0.061 OD405 nm; signal [OD405 nm] [23]: 0.046 OD405 nm; signal [OD405 nm] [24]: 0.058 OD405 nm; signal [OD405 nm] [25]: 0.057 OD405 nm | B3
